Square brackets hold non-standard residues; d marks the D form. Ends that are not written are not given here. pT = C[C@@H](OP(=O)(O)O)[C@H](N)C(=O)O; pS = N[C@@H](COP(=O)(O)O)C(=O)O
What was measured:
Conditions in all cases: both partners purified
[1] = target: T1, Rattus norvegicus wild-type β-arrestin2 (Rattus norvegicus, UniProt P29067 1-410); experiment: pull-down; 20 μg βarr2 pre-incubated with or without peptide (5:1 peptide:βarr2, 4 °C, 1 h), then GST beads with 30 μg GST-clathrin, 2 h at 4 °C; 20 mM Tris-HCl pH 8.0, 100 mM NaCl, 1 mM DTT; GSH elution, anti-His Western blot
T1 construct: β-arrestin2, Rattus norvegicus, UniProt P29067, cloned into pET-28a; also called βarr2; wild-type βarr2; source: E. coli BL21(DE3)pLysS, purified (Ni-sepharose, HiTrap heparin, Superdex 200 gel filtration); not shown: His6, N-terminal, kept
T1 sequence (P29067 whole entry): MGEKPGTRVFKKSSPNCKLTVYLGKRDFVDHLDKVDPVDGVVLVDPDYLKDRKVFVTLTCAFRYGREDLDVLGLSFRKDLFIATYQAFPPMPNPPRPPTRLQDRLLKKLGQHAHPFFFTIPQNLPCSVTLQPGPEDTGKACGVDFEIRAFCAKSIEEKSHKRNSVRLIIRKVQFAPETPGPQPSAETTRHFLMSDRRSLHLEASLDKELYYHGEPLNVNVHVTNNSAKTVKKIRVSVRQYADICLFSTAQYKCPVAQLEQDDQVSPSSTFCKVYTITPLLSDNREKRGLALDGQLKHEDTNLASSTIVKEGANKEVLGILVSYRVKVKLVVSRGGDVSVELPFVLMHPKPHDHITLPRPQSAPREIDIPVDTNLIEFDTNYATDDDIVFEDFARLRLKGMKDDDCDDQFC

[2] = target: T1, Rattus norvegicus wild-type β-arrestin2; experiment: ITC; 1 mM peptide injected (2.5 μL, 200 s intervals) into 200 μM βarr2 in the cell; 298 K; 20 mM HEPES pH 7.0, 200 mM NaCl; two-site model for the wild type
[3] = target: T2, βarr2 R394A mutant (Rattus norvegicus, UniProt P29067 1-410, R394A); experiment: as above
T2 construct: β-arrestin2, rat (as the wild type m1), with R394A; also called R394A (site II); source: purified
T2 sequence (P29067 whole entry R394A): as the sequence (P29067 whole entry) above, with R394A counted along it

[4] = target: T3, βarr2 R166A mutant (Rattus norvegicus, UniProt P29067 1-410, R166A); experiment: as above
T3 construct: β-arrestin2, rat (as the wild type m1), with R166A; also called R166A (site I); source: purified
T3 sequence (P29067 whole entry R166A): as the sequence (P29067 whole entry) above, with R166A counted along it

Row | Binder | binding result [1] | binding result [2] | Kd [3] | Kd [4]
1 | A[pS]RV[pS]E[pT]EY[pS]ALEQ[pS][pT]K (peptide, UniProt P25106 346-362, looked up, CXCR7, C-terminal residues 346-362; source: synthetic peptide (NovoPep and Tufts University Core Facility)) [C7pp3, phosphopeptide from the carboxyl terminus of CXCR7 (residues 346-362)] | binds | – | – | –
2 | ASRV[pS]E[pT]EY[pS]ALEQ (peptide, UniProt P25106 346-359, looked up, CXCR7 (atypical chemokine receptor), C-terminal residues 346-359; also called distal phospho-site cluster PxPxxP; source: synthetic peptide (NovoPep and Tufts University Core Facility)) [C7pp2, phosphopeptide from the carboxyl terminus of CXCR7 (residues 346-359)] | – | binds | 1.1 µM | 16.4 µM

Source: article PMC12331092, “An arginine switch drives the stepwise activation of β-arrestin by CXCR7” (PLOS Biology, 2025)
